Data from article PMC3683068.
Read-outs that look alike come from different tables or passages of the source.

What was measured:
Test in all cases: two-hybrid; mammalian two-hybrid in HEK-293 cells; GAL4-ASK1 fragments in pBIND, VP16-Nef in pACT, pG5luc reporter; firefly luciferase/Renilla 48 hrs after transfection, fold over the pACT-pBIND negative control
[1] = biological target: ASK1 (1-1051 aa), GAL4 fusion (UniProt Q99683)
[2] = biological target: ASK1 (861-1051 aa), GAL4 fusion (UniProt Q99683)
[3] = biological target: ASK1 (1-345 aa), GAL4 fusion (UniProt Q99683)
[4] = biological target: ASK1 (1-1051 aa), GAL4 fusion (UniProt Q99683); remark: listed apart in the source
[5] = biological target: ASK1 (1-904 aa), GAL4 fusion (UniProt Q99683)
[6] = biological target: ASK1 (319-1051 aa), GAL4 fusion (UniProt Q99683)
[7] = biological target: ASK1 (1-1051 aa), GAL4 fusion (UniProt Q99683); remark: listed apart in the source
[8] = biological target: ASK1 (1-904 aa), GAL4 fusion (UniProt Q99683); remark: listed apart in the source
[9] = biological target: ASK1 (1-1051 aa), GAL4 fusion (UniProt Q99683); remark: listed apart in the source

Substance “HIV-1 Nef (57-174 aa), VP16 fusion (domain or fragment)” has a fold increase in luciferase/renilla over pACT-pBIND [1] of 81.7 fold.

For “HIV-1 Nef core domain (57-207 aa), VP16 fusion (domain or fragment)”, the fold increase in luciferase/renilla over pACT-pBIND [1] was 153 fold, the fold increase in luciferase/renilla over pACT-pBIND [2] was 2.93 fold and the fold increase in luciferase/renilla over pACT-pBIND [3] was 2.05 fold. The fold increase in luciferase/renilla over pACT-pBIND [4] was 156 fold, the fold increase in luciferase/renilla over pACT-pBIND [5] was 8.75 fold and the fold increase in luciferase/renilla over pACT-pBIND [6] was 2.83 fold. For the same substance, the fold increase in luciferase/renilla over pACT-pBIND [7] was 157 fold, the fold increase in luciferase/renilla over pACT-pBIND [8] was 9.15 fold and the fold increase in luciferase/renilla over pACT-pBIND [9] was 162 fold.
